The values below come from paper doi:10.1101/2025.09.02.673809.

This assay concerns the target HLA-DQ8 molecule (DQA1*03:01-DQB1*03:02) (human). The experiment in a line: ProImmune REVEAL MHC-peptide binding assay.

With EALYLVCGNAVEVLK [insulin-derived 15-mer …], the fold affinity against the reference peptide (T1D auto-antigen …) worked out at 41 fold.
